The target of one assay is T1, human CD81 mutant V135A (human, UniProt P60033 1-236, limits assumed).
T1 construct: as m30; not shown: C-terminal V5 and 6xHis tags
T1 sequence: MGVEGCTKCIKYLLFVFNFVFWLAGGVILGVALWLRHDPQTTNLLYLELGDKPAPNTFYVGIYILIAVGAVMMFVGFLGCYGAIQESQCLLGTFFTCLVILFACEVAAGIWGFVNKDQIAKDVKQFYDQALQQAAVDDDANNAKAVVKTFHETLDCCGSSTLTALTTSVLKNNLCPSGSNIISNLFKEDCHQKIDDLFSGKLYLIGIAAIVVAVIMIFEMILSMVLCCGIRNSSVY
The experiment in a line: ELISA. On the technique in general: In an ELISA, binding on a coated surface is turned into a signal by an enzyme label.

For a further assay, the target named is T2, human CD81 mutant D137A (human, UniProt P60033 1-236, limits assumed).
T2 construct: as m30; not shown: C-terminal V5 and 6xHis tags
T2 sequence: T1 sequence with A135V, D137A
The experiment in a line: ELISA.

The target of another assay is T3, human CD81 mutant G158S (human, UniProt P60033 1-236, limits assumed).
T3 construct: as m30; not shown: C-terminal V5 and 6xHis tags
T3 sequence: T1 sequence with A135V, G158S
The assay is described as follows: ELISA.

The next assay deals with T4, human CD81 mutant A164T (human, UniProt P60033 1-236, limits assumed).
T4 construct: as m30; not shown: C-terminal V5 and 6xHis tags
T4 sequence: T1 sequence with A135V, A164T
The assay is described as follows: ELISA.

The target in the next assay is T5, human CD81 mutant L165A (human, UniProt P60033 1-236, limits assumed).
T5 construct: as m30; not shown: C-terminal V5 and 6xHis tags
T5 sequence: T1 sequence with A135V, L165A
The assay is described as follows: ELISA.

The target of another assay is T6, human CD81 mutant V169A (human, UniProt P60033 1-236, limits assumed).
T6 construct: as m30; not shown: C-terminal V5 and 6xHis tags
T6 sequence: T1 sequence with A135V, V169A
The experiment in a line: ELISA.

Another assay deals with T7, human CD81 mutant V135L (human, UniProt P60033 1-236, limits assumed).
T7 construct: as m30; not shown: C-terminal V5 and 6xHis tags
T7 sequence: T1 sequence with A135L
The assay is described as follows: ELISA.

A further assay deals with T8, human CD81 mutant H151R (human, UniProt P60033 1-236, limits assumed).
T8 construct: as m30; also called H151B; not shown: C-terminal V5 and 6xHis tags
T8 sequence: T1 sequence with A135V, H151R
The assay is described as follows: ELISA.

In a further assay the target is T9, human CD81 mutant A164V (human, UniProt P60033 1-236, limits assumed).
T9 construct: as m30; not shown: C-terminal V5 and 6xHis tags
T9 sequence: T1 sequence with A135V, A164V
The assay is described as follows: ELISA.

A further assay has as its target T10, human CD81 mutant V169L (human, UniProt P60033 1-236, limits assumed).
T10 construct: as m30; not shown: C-terminal V5 and 6xHis tags
T10 sequence: T1 sequence with A135V, V169L
The experiment in a line: ELISA.

Assay [1] has as its target T11, human CD81 on CD81-expressing cells (Jurkat E6.1, human PBMC, Ramos) (human, UniProt P60033 1-236).
T11 sequence: T1 sequence with A135V
The experiment in a line: cell-based or functional assay.

A further assay concerns the target T12, human CD81 mutant I194A (human, UniProt P60033 1-236, limits assumed).
T12 construct: as m30; not shown: C-terminal V5 and 6xHis tags
T12 sequence: T1 sequence with A135V, I194A
The assay is described as follows: ELISA.

Results on four molecules are retold here after patent publication US20150139990A1 (DAINIPPON SUMITOMO PHARMA, published 2015).

Substitutions are numbered along the chain they refer to. Numbers in names are those of the source.

B1: 002-B05 (antibody, human IgG4 S228P, lambda, V domains shown)
VH: EVQLLESGGGLVQPGGSLRLSCAASGFTFSSNYMSWVRQAPGKGLEWVSYISSSSTYTDYADSVKGRFTISRDNSKNTLYLQMNSLRAEDTAVYYCARYSYSRDNFDYWGQGTLVTVSS
VL: QSVLTQPPSASGTPGQRVTISCTGSTSNIGAGYGTHWYQRLPGTAPKLLIYGNSNRPSGVPDRFSGSKSGTSASLAISGLRSEDEADYYCQSYDTNLSVWVFGGGTKLTVLG
notes: IgG4 S228P
For the molecule B1, the relative binding affinity in the assay with human CD81 mutant V135A, with human CD81 mutant D137A, in the assay with human CD81 mutant G158S, in the assay with human CD81 mutant A164T, with human CD81 mutant L165A and with human CD81 mutant V169A was under 20% throughout. For the same molecule, the relative binding affinity in the assay with human CD81 mutant V135L, in the assay with human CD81 mutant H151R, with human CD81 mutant A164V and in the assay with human CD81 mutant V169L was under 20% throughout. Moreover, the “Jurkat chemotaxis (% of control IgG4) at 0.001 µg/mL” value in assay [1] is 84%. Besides, the “Jurkat chemotaxis (% of control IgG4) at 0.01 µg/mL” value in assay [1] was 78%. The “Jurkat chemotaxis (% of control IgG4) at 0.1 µg/mL” value in [1] was 10%. For the same molecule, the “Jurkat chemotaxis (% of control IgG4) at 1 µg/mL” value in [1] was -1%. The “Jurkat chemotaxis (% of control IgG4) at 10 µg/mL” value in assay [1] was -10%.

B2: 002-D03 (antibody, human IgG4 S228P, lambda, V domains shown)
VH: B1 VH with S30R, S102G
VL: B1 VL with G34D, R40Q
notes: IgG4 S228P
With B2, the relative binding affinity in the assay with human CD81 mutant V135A, with human CD81 mutant D137A, with human CD81 mutant A164T, in the assay with human CD81 mutant L165A, in the assay with human CD81 mutant V169A and with human CD81 mutant A164V was under 20% each time. In the assay with human CD81 mutant V169L, the relative binding affinity is under 20%. For the same molecule, the “Jurkat chemotaxis (% of control IgG4) at 0.001 µg/mL” value in [1] worked out at 105%. The “Jurkat chemotaxis (% of control IgG4) at 0.01 µg/mL” value in assay [1] was 91%. Further, the “Jurkat chemotaxis (% of control IgG4) at 0.1 µg/mL” value in [1] turned out to be 25%. The “Jurkat chemotaxis (% of control IgG4) at 1 µg/mL” value in assay [1] came to 14%. In addition, the “Jurkat chemotaxis (% of control IgG4) at 10 µg/mL” value in assay [1] is 16%.

B3: 002-F07 (antibody, human IgG4 S228P, lambda, V domains shown)
VH: B1 VH with S102G, N105S
VL: B1 VL with P8F, Y33F, G34D, R40Q, S72T
notes: IgG4 S228P
As for B3, the relative binding affinity with human CD81 mutant V135A, with human CD81 mutant A164T, in the assay with human CD81 mutant L165A, in the assay with human CD81 mutant V169A, with human CD81 mutant I194A and with human CD81 mutant A164V was under 20% in each case. The molecule also displayed a relative binding affinity with human CD81 mutant V169L of under 20%. In assay [1], the “Jurkat chemotaxis (% of control IgG4) at 0.001 µg/mL” value was determined as 101%. Besides, the “Jurkat chemotaxis (% of control IgG4) at 0.01 µg/mL” value in [1] came to 88%. Also, the “Jurkat chemotaxis (% of control IgG4) at 0.1 µg/mL” value in assay [1] is 38%. Further, the “Jurkat chemotaxis (% of control IgG4) at 1 µg/mL” value in assay [1] was 13%. Further, the “Jurkat chemotaxis (% of control IgG4) at 10 µg/mL” value in assay [1] was 15%.

B4: 003-A11 (antibody, human IgG4 S228P, lambda, V domains shown)
VH: B1 VH with S30G, S102G
VL: B1 VL with G34D, R40Q, V99G
notes: IgG4 S228P
In the case of B4, the relative binding affinity with human CD81 mutant V135A, in the assay with human CD81 mutant A164T, with human CD81 mutant L165A, with human CD81 mutant V169A, with human CD81 mutant I194A and with human CD81 mutant A164V was under 20% throughout. In the assay with human CD81 mutant V169L, this molecule came in with a relative binding affinity of under 20%. Also, the “Jurkat chemotaxis (% of control IgG4) at 0.001 µg/mL” value in assay [1] was determined as 91%. Also, the “Jurkat chemotaxis (% of control IgG4) at 0.01 µg/mL” value in assay [1] came to 86%. Further, the “Jurkat chemotaxis (% of control IgG4) at 0.1 µg/mL” value in [1] worked out at 16%. In addition, the “Jurkat chemotaxis (% of control IgG4) at 1 µg/mL” value in assay [1] worked out at 1%. The “Jurkat chemotaxis (% of control IgG4) at 10 µg/mL” value in assay [1] came to 2%.
